Experimental data as given in patent publication US20090117124A1 (Pfizer, published 2009).
Residue numbers refer to the chain shown, from its start. Numbers in names are those of the source. Each block holds one binder with its values, some of them ahead of it.

What was measured:
[1] = target: T1, cynomolgus monkey IgE (in cynomolgus serum, Harlan Sera-Lab Ltd) (cynomolgus monkey); assay: capture ELISA, Test 1, Cyno 3
T1 construct: Serum was the source of IgE; eight serum samples; also called cynomolgus IgE; Cyno 1 to Cyno 8 serum samples
Procedure: (§1) Wells were washed once with 150 μL/well wash buffer (0.05% Tween-20, Sigma, Cat. No. P7949/TBS) then blocked with 150 μL/well 1% BSA (Sigma, Cat. No. A7030) in TBS for 2 hours at room temperature. Wells were washed twice with 150 μL wash buffer. 50 μL human (in-house donors) or cynomolgus serum (Harlan Sera-Lab Ltd, Loughborough) was added from neat to at least 1:16 dilution in 1% BSA/0.05% Tween-20/TBS diluent buffer. […] Wells were incubated for 2 hours at 25° C. before washing (3×150 μL wash buffer). […] Wells were incubated for 1 hour at 25° C. then washed (3×150 μL wash buffer). Streptavidin-HRP (Amersham Bioscience, Cat. No. RPN 1231) diluted 1:1000 in diluent buffer was added to all wells and incubated for 45 minutes at room temperature. Wells were washed (3×150 […] wash buffer). 50 μL OPD (Dako, Cat. No. S2045) was added to all wells and the color allowed to develop for 10 minutes before stopping the reaction with 50 μl 0.6M H₂SO₄ and the absorbance measured at 490 nm.

[2] = target: T1, cynomolgus monkey IgE (in cynomolgus …); assay: capture ELISA, Test 1, Cyno 6
Procedure: as §1

[3] = target: T2, human IgE (Human myeloma, azide free, Serotec, Cat. No. PHP008X2) (human, UniProt P01854 1-546); assay: cell-based or functional assay
[4] = target: T3, free IgE in human serum (healthy volunteers, in-house donors) (human, UniProt P01854-1 1-428); assay: capture ELISA, Test 1, human serum
T3 construct: Kept apart from the bought myeloma IgE because it is native serum IgE of single donors; also called serum IgE
Procedure: as §1

[5] = target: T1, cynomolgus monkey IgE (in cynomolgus …); assay: capture ELISA, Test 2, Cyno 6
Procedure: as §1

[6] = target: T3, free IgE in human serum (healthy …); assay: serum free IgE depletion ELISA; DIN 0591
Procedure: (§2) The next day ELISA plates were washed 1× with 300 μL/well wash buffer (0.05% Tween-20, Sigma, Cat. No. P7949/TBS) then blocked with 150 μL/well 1% BSA (Sigma, Cat. No. A7030) in TBS for 1 hour at room temperature.

[7] = target: T3, free IgE in human serum (healthy …); assay: serum free IgE depletion ELISA; DIN 0748
Procedure: as §2

[8] = target: T1, cynomolgus monkey IgE (in cynomolgus …); assay: capture ELISA, Test 1, Cyno 1
Procedure: as §1

[9] = target: T3, free IgE in human serum (healthy …); assay: serum free IgE depletion ELISA; DIN 0155
Procedure: as §2

[10] = target: T3, free IgE in human serum (healthy …); assay: serum free IgE depletion ELISA; DIN 0011 experiment 2
Procedure: as §2

[11] = target: T3, free IgE in human serum (healthy …); assay: serum free IgE depletion ELISA; DIN 0347
Procedure: as §2

[12] = target: T4, human IgG1 (Biodesign, Cat. No. A50183H) (human); assay: ELISA on coated immunoglobulin
T4 construct: Bought immunoglobulin coated on the plate
Procedure: (§3) Wells were washed 3× with 150 μL wash buffer (0.05% Tween-20 (Sigma, Cat. No. P7949)/PBS) then blocked with 150 μL/well blocking buffer (2.5% BSA (Sigma, Cat. No. A7030)/PBS) for 2 hours at room temperature. Wells were washed 3× with 150 μL wash buffer/well. […] Antibodies were diluted in diluent buffer (PBS/1% BSA/0.05% Tween-20) and this was added to blank control wells (duplicate wells for each secondary antibody used). Antibodies were incubated for 2 hours at room temperature. Wells were washed 3× with 150 μL wash buffer/well. Binding of control antibodies to immunoglobulin was detected with anti-mouse IgG-HRP conjugate (Sigma, Cat. No. A4416) diluted 1:8000 in diluent buffer. 50 μL/well was added to control antibody and blank wells. Wells were incubated for 1 hour at room temperature, then washed 3× with 150 μL wash buffer/well. 50 μl OPD (Dako, Cat. No. […] Wells were incubated for 1 hour at room temperature then washed 3× with 150 μL wash buffer/well. Streptavidin-HRP (Amersham Bioscience, Cat. No. RPN 1231) diluted 1:2000 in diluent buffer was added to all wells and incubated for 45 minutes at room temperature. Wells were washed (3×150 μL wash buffer).

[13] = target: T5, human IgG3 (Biodesign, Cat. No. A50186H) (human); assay: ELISA on coated immunoglobulin
T5 construct: Bought immunoglobulin coated on the plate
Procedure: as §3

[14] = target: T2, human IgE (Human myeloma, azide free, …); assay: ELISA on coated immunoglobulin
Procedure: as §3

[15] = target: T6, human IgA (Sigma, Cat. No. I2636) (human); assay: ELISA on coated immunoglobulin
T6 chain: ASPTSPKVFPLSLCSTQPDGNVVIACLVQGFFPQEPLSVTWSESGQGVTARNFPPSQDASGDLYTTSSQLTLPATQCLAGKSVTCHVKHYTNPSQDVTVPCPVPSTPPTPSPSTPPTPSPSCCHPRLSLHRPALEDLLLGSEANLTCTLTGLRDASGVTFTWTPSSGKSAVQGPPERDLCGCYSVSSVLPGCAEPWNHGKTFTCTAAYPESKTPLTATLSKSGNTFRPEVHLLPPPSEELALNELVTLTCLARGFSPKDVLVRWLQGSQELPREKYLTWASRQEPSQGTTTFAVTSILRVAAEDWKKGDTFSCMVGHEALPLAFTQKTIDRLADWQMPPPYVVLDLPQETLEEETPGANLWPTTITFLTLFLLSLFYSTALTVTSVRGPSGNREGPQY
Procedure: as §3

T3 sequence (P01854 other isoform, or with tags, fused parts or gaps): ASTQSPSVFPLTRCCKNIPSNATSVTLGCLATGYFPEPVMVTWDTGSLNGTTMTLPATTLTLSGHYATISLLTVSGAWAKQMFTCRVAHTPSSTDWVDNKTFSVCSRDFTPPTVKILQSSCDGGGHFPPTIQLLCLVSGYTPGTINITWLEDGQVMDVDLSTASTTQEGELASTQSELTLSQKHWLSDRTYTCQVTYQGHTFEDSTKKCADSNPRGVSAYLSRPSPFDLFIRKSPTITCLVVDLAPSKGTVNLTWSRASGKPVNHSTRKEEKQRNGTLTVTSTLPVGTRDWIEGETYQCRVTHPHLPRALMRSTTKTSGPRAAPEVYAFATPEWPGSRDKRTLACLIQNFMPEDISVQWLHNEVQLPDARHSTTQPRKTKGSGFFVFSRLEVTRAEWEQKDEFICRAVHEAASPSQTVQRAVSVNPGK
T2 sequence (P01854 whole entry): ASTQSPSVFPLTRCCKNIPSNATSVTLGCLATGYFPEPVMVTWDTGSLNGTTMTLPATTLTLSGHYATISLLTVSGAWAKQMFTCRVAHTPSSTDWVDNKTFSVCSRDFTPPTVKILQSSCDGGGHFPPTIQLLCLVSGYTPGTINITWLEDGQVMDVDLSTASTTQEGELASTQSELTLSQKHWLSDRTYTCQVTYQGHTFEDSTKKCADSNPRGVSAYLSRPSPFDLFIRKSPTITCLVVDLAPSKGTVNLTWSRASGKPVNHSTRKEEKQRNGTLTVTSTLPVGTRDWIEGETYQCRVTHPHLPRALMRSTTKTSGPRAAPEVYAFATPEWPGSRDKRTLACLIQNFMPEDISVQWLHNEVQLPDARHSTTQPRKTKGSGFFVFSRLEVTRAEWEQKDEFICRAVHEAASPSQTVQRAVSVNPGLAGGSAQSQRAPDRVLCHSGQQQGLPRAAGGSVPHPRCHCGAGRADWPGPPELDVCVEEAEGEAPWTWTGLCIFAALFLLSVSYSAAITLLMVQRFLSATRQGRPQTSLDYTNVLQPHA

IgE concentration detected [1]: 457 ng/mL
IgE concentration detected [2]: 53 ng/mL
IC50, inhibition of IgE-mediated degranulation (histamine release) of RBL-2H3 (FcεR1) cells; Batch 1 [3]: 0.36 µg/mL
IC50, inhibition of IgE-mediated degranulation (histamine release) of RBL-2H3 (FcεR1) cells; Batch 2 [3]: 0.123 µg/mL
IgE concentration detected [4]: 468 ng/mL
IgE concentration detected [5]: 62 ng/mL
IC25 ng/mL [6]: 2.35 µg/mL
IC25 ng/mL [7]: 25.1 µg/mL
IgE concentration detected [8]: 481 ng/mL
IC25 ng/mL [9]: 1.81 µg/mL
IC25 ng/mL [10]: 6.34 µg/mL
IC25 ng/mL [11]: 4.92 µg/mL
A290 nm [12]: 0.07 A290 nm
A290 nm [13]: 0.04 A290 nm
A290 nm [14]: 2.57 A290 nm
A290 nm [15]: 0.04 A290 nm
B1: 5.948.1 (recombinant) (antibody, human IgG2, kappa, V domains shown)
VH: QVQLVQSGAEVKKPGASVKVSCKASGYTFTSYDINWVRQATGQGLEWMGWMDPNSGNTGYAQKFQGRVTMTRNTSISTAYMELSSLRSEDTAVYYCARGHYDSDGYYSFSGMDVWGQGTTVTVSS
VL: not shown
notes: Human IgG2 kappa; leader omitted; Two batches were tested in some assays; also called recombinant 5.948.1; 5.948.1 - Batch 1 (762.8 µg/mL)

IC50, inhibition of IgE-mediated degranulation (histamine release) of RBL-2H3 (FcεR1) cells [3]: 0.0121 µg/mL
IgE concentration detected [5]: 39 ng/mL
IC25 ng/mL [6]: 0.55 µg/mL
IC25 ng/mL [9]: 0.34 µg/mL
IC25 ng/mL [10]: 2.96 µg/mL
IC25 ng/mL [11]: 1.33 µg/mL
A290 nm [12]: 0.06 A290 nm
A290 nm [13]: 0.06 A290 nm
A290 nm [14]: 1.05 A290 nm
A290 nm [15]: 0.05 A290 nm
B2: 5.948.1 Hc-H100Y (antibody, human IgG2, kappa, V domains shown)
VH: B1 VH with H100Y
VL: not shown
notes: Human IgG2 kappa; leader omitted; also called 5.948.1 (H100Y); 5.948.1 H100Y
